From patent US20260092093A1 (TJ BIOPHARMA SHANGHAI, published 2026)

Key:
Experiment in all cases: cell-based or functional assay
[1] = target: T1, hIL-18 receptor (hIL-18Rα and hIL-18Rβ) (human, UniProt Q13478 19-541; O95256 20-599)
T1 sequence (looked up) 1: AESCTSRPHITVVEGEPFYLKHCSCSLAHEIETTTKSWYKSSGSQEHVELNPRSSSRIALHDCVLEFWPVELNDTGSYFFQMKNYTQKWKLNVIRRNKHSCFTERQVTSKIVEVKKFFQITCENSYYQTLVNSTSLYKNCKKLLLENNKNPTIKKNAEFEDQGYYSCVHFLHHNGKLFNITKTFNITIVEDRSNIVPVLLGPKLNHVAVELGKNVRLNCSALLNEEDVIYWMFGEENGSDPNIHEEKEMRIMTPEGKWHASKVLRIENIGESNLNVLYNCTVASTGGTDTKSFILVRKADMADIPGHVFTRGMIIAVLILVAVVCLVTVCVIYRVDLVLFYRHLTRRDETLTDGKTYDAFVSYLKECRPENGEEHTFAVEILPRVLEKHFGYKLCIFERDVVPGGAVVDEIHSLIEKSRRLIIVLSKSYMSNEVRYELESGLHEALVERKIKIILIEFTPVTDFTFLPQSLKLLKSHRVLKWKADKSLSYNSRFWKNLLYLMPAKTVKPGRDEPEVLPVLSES
T1 sequence (looked up) 2: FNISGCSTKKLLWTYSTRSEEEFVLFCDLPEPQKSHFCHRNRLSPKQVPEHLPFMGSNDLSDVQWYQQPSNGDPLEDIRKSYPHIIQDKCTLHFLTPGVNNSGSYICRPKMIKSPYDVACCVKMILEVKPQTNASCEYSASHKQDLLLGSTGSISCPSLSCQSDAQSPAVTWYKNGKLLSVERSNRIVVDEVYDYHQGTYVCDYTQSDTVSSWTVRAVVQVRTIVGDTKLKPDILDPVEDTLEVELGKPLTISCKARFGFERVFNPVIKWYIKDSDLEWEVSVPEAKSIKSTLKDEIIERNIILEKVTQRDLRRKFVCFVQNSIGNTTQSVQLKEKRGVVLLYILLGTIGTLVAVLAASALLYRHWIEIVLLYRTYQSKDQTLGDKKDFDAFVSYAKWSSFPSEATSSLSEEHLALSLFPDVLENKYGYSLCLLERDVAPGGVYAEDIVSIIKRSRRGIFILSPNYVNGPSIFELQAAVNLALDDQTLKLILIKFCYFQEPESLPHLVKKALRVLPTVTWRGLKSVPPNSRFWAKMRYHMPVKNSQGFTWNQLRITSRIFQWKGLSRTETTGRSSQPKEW

[2] = target: T2, hIL-18BP-hFc (human, UniProt O95998 31-194, limits assumed)
T2 sequence (looked up): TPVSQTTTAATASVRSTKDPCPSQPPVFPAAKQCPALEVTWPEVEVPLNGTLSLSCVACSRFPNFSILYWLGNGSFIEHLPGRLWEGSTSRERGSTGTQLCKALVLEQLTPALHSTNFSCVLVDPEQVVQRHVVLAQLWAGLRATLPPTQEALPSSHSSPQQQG

[3] = target: T1, hIL-18 receptor (hIL-18Rα and hIL-18Rβ); remark: listed apart in the source
[4] = target: T2, hIL-18BP-hFc; remark: listed apart in the source

| Binder | EC50 (nM), hIL-18 reporter assay [1] [nM] | EC50 (nM) in the Presence of 1 µg/mL hIL-18BP-hFc, hIL-18 reporter assay [2] [nM] | EC50 Fold Change (+BP/-BP), hIL-18 reporter assay [2] [fold] | EC50 (nM), PBMC assay (hIFNγ release) [3] [nM] | EC50 (nM) in the Presence of 1 µg/mL hIL-18BP-hFc, PBMC assay (hIFNγ release) [4] [nM] | EC50 Fold Change (+BP/-BP), PBMC assay (hIFNγ release) [4] [fold] |
| --- | --- | --- | --- | --- | --- | --- |
| IL-18 variant polypeptide M29 (ligand) YFPKLMSKLSVIRNLNDQVLFIDQGNRPLFEDMTDSDCRDNAPRTIFIISMYKFSDRRGMAVTISVKCEKISTLSCENKIISFKEMNPPDPIKDTKSDIIFFQRSVPGHDNKMQFESSSYEGYFLACEKERDLFKLILKKEDELGDRSIMFTVQNED | 4.8 | 1.9 | 0.4 | 0.14 | 0.096 | 0.69 |
| IL-18 variant polypeptide WM8 (ligand) YFPKLRSKLSVIRNLNDQVLFIDQGNRPLFEDMTDSDCRDNAPRTIFIISMYKDSQPRGMAVTISVKCEKISTLSCENKIISFKEMNPPDSIKDTKSDIIFFQRSVPGHDNKMQFESSSYEGYFLACEKERDLFKLILKKEDELGDRSIMFTVQNED | 7 | 5.2 | 0.74 | 0.68 | 1.02 | 1.5 |
| IL-18 variant polypeptide M25 (ligand) YFPKLRSKLSVIRNLNDQVLFIDQGNRPLFEDMTDSDCRDNAPRTIFIISMYKLSTTRGMAVTISVKCEKISTLSCENKIISFKEMNPPDRIKDTKSDIIFFQRSVPGHDNKMQFESSSYEGYFLACEKERDLFKLILKKEDELGDRSIMFTVQNED | 0.58 | 1.15 | 1.98 |  |  |  |
| IL-18 variant polypeptide MM5 (ligand) YFGKLGSKLSVIRNLNDQVLFIDQGNRPLFEDMTDSDCRDNAPRTIFIISMYKLSTERGMAVTISVKCEKISTLSCENKIISFKEMNPPDGIKDTKSDIIFFQSSVPGHDNKMQFESSSYEGYFLACEKERDLFKLILKKEDELGDRSIMFTVQNED | 0.028 | 0.08 | 2.86 | 0.035 | 0.045 | 1.29 |
| IL-18 variant polypeptide M32 (ligand) YFPKLGSKLSVIRNLNDQVLFIDQGNRPLFEDMTDSDCRDNAPRTIFIISMYKSSSRRGMAVTISVKCEKISTLSCENKIISFKEMNPPDNIKDTKSDIIFFQRSVPGHDNKMQFESSSYEGYFLACEKERDLFKLILKKEDELGDRSIMFTVQNED | 5.9 | 4.1 | 0.69 | 0.13 | 0.1 | 0.77 |
| IL-18 variant polypeptide M23 (ligand) YFPKLRSKLSVIRNLNDQVLFIDQGNRPLFEDMTDSDCRDNAPRTIFIISMYKYSTRRGMAVTISVKCEKISTLSCENKIISFKEMNPPDNIKDTKSDIIFFQRSVPGHDNKMQFESSSYEGYFLACEKERDLFKLILKKEDELGDRSIMFTVQNED | 0.8 | 1.4 | 1.75 |  |  |  |
| IL-18 variant polypeptide M26 (ligand) YFPKLRSKLSVIRNLNDQVLFIDQGNRPLFEDMTDSDCRDNAPRTIFIISMYKHSDKRGMAVTISVKCEKISTLSCENKIISFKEMNPPDVIKDTKSDIIFFQYSVPGHDNKMQFESSSYEGYFLACEKERDLFKLILKKEDELGDRSIMFTVQNED | 0.068 | 0.094 | 1.38 |  |  |  |
| IL-18 variant polypeptide WM6 (ligand) YFDKLKSKLSVIRNLNDQVLFIDQGNRPLFEDMTDSDCRDNAPRTIFIISMYKDSQPRGMAVTISVKCEKISTLSCENKIISFKEMNPPDSIKDTKSDIIFFQRSVPGHDNKMQFESSSYEGYFLACEKERDLFKLILKKEDELGDRSIMFTVQNED | 0.06 | 0.74 | 12.3 |  | ~0.04 |  |
| IL-18 variant polypeptide M36 (ligand) YFPKLSSKLSVIRNLNDQVLFIDQGNRPLFEDMTDSDCRDNAPRTIFIISMYKASDQRGMAVTISVKCEKISTLSCENKIISFKEMNPPDGIKDTKSDIIFFQRSVPGHDNKMQFESSSYEGYFLACEKERDLFKLILKKEDELGDRSIMFTVQNED | 3.9 | 2.5 | 0.64 | 1.1 | 0.8 | 0.73 |
| IL-18 variant polypeptide M35 (ligand) YFPKLRSKLSVIRNLNDQVLFIDQGNRPLFEDMTDSDCRDNAPRTIFIISMYKGSGARGMAVTISVKCEKISTLSCENKIISFKEMNPPDGIKDTKSDIIFFQRSVPGHDNKMQFESSSYEGYFLACEKERDLFKLILKKEDELGDRSIMFTVQNED | 0.62 | 0.51 | 0.82 | 0.085 | 0.14 | 1.65 |
| IL-18 variant polypeptide WM10 (ligand) YFPKLKSKLSVIRNLNDQVLFIDQGNRPLFEDMTDSDCRDNAPRTIFIISMYKDSQPRGMAVTISVKCEKISTLSCENKIISFKEMNPPDSIKDTKSDIIFFQRSVPGHDNKMQFESSSYEGYFLACEKERDLFKLILKKEDELGDRSIMFTVQNED | 14.7 | 15.6 | 1.06 | 0.53 | 0.44 | 0.83 |
| IL-18 variant polypeptide M33 (ligand) YFEKLHSKLSVIRNLNDQVLFIDQGNRPLFEDMTDSDCRDNAPRTIFIISMYKRSTHRGMAVTISVKCEKISTLSCENKIISFKEMNPPDNIKDTKSDIIFFQRSVPGHDNKMQFESSSYEGYFLACEKERDLFKLILKKEDELGDRSIMFTVQNED | 18.4 | 10.7 | 0.58 | 0.51 | 0.35 | 0.69 |
